Data from article PMC5789848 (2018).
Numbering of substitutions follows the chain as printed. Names and notes keep the numbering of the source.

B1: UPF1-HD_(DE636AA), histidine-tagged (domain or fragment)
chain: RYEDAYQYQNIFGPLVKLEADYDKKLKESQTQDNITVRWDLGLNKKRIAYFTLPKTDSDMRLMQGDEICLRYKGDLAPLWKGIGHVIKVPDNYGDEIAIELRSSVGAPVEVTHNFQVDFVWKSTSFDRMQSALKTFAVDETSVSGYIYHKLLGHEVEDVIIKCQLPKRFTAQGLPDLNHSQVYAVKTVLQRPLSLIQGPPGTGKTVTSATIVYHLARQGNGPVLVCAPSNIAVDQLTEKIHQTGLKVVRLCAKSREAIDSPVSFLALHNQIRNMDSMPELQKLQQLKDETGELSSADEKRYRALKRTAERELLMNADVICCTCVGAGDPRLAKMQFRSILIAASTQATEPECMVPVVLGAKQLILVGDHCQLGPVVMCKKAAKAGLSQSLFERLVVLGIRPIRLQVQYRMHPALSAFPSNIFYEGSLQNGVTAADRVKKGFDFQWPQPDKPMFFYVTQGQEEIASSGTSYLNRTEAANVEKITTKLLKAGAKPDQIGIITPYEGQRSYLVQYMQFSGSLHTKLYQEVEIASVDAFQGREKDFIILSCVRANEHQGIGFLNDPRRLNVALTRARYGVIIVGNPKALSKQPLWNHLLNYYKEQKVLVEGPLNNLRESLMQFS
B2: UPF1-HD_(R843S), histidine-tagged (domain or fragment)
chain: B1 chain with A342D, A343E, R549S
B3: UPF1 helicase core domain (UPF1-HD; aa 295-914), C-terminal hexahistidine (domain or fragment)
chain: B1 chain with A342D, A343E
B4: UPF1-HD_(R843C), histidine-tagged (domain or fragment)
chain: B1 chain with A342D, A343E, R549C

target: T1, GST-Tax_(CACA) (HTLV-1 Tax with C23 and C29 changed to alanine, N-terminal GST fusion) (HTLV-1, UniProt P03409 1-353, C23A | C29A); experiment: BLI

Binder	Kd [nM]
B1	31.4
B2	66.6
B3	16.6
B4	53.8

target: T1, GST-Tax_(CACA) (HTLV-1 Tax with C23 and …); experiment: BLI; remark: another data set of the same source

Binder	koff [s⁻¹]
B1	0.000283
B2	0.000877
B3	0.00038
B4	0.000437
